# Key:
# [1] = molecular target: T1, LRS-(1-1176) / RagD binding (Homo sapiens, UniProt Q9NQL2); assay: ELISA for binding between LRS and RagD; details: GST-RagD on plate coated with His-LRS-(1-1176), fragment added during incubation
# T1 construct: Purified GST-RagD was incubated with His-LRS-(1-1176) coated on a plate; made in house; host or cells: E. coli BL21(DE3) for His-LRS (pET 16a); E. coli BL21 for GST-RagD (pGEX4T3)
# Experimental: FIGS. 13a and 13b show ELISA assay results for measuring binding affinity between LRS and RagD.
# In FIG. 13b, the comparison result of binding affinity for control (GST), RagD and RagD+LRS-(759-1176) on a 96 well plate coated with LRS-(1-1176) is shown.
# First, each fragment of LRS was synthesized by PCR amplification using the cDNA of LRS as a template and a primer set (Table 1) specific for each fragment. The PCR amplification was performed under the following conditions: predenaturation of the template DNA at 95° C. for 2 min; and then 30 cycles, each consisting of 30 sec at 95° C., 30 sec at 56° C., and 3 min and 30 sec at 72° C.; followed by final extension at 72° C. for 10 min. Each of the PCR products was digested with NdeI and BamHI and ligated into a pET 16a vector (Novagen) digested with the same restriction enzymes. E. coli BL21(DE3) cells were transformed with the vector and cultured to induce the expression of peptides. Each peptide expressed as a His-tag fusion protein was purified by Ni-chelating agarose. […]
# A fragment of RagD was synthesized by PCR amplification using the cDNA of […] as a template and a primer set (Table 1) specific for each fragment. […] Each peptide expressed as a GST-tag fusion protein was purified by GSH agarose. […]
# [2] = molecular target: T2, RagD GTPase (Homo sapiens, UniProt Q9NQL2); assay: In vitro GTPase assay; assay type: biochemical; details: LRS (759-1176 a.a) fragment incubated with RagD, 37° C.
# T2 construct: made in house; host or cells: LRS fragment: E. coli BL21(DE3), pET 16a
# T2 sequence (Q9NQL2 whole entry, the tested form may be a part): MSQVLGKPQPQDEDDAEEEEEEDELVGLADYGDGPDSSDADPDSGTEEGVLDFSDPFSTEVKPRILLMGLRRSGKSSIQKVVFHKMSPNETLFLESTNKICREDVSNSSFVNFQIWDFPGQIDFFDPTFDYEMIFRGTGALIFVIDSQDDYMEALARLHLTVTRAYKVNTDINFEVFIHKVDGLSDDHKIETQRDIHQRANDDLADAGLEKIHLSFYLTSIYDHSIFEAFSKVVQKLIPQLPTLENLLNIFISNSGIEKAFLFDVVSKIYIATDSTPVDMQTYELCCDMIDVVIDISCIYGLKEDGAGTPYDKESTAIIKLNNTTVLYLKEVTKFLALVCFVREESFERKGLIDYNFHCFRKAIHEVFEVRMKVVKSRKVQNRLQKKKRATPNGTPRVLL
# Experimental: In FIG. 7a, the indicated amounts of Histagged LRS (759-1176 a.a) fragment were incubated with 0.15 pM RagD for 20 min at 37° C. The error bars represent mean S.D. (n=3).
# In FIG. 7b, his-tagged LRS fragments (0.3 μM) were incubated with RagD for the indicated times. The error bars represent mean S.D. (n=3).
# In FIG. 7d, the effects of LRS WT and mutants on GTP hydrolysis of RagD is shown. Purified LRS WT (759-1176 a.a) fragment or mutants (H844A, R845A) fragments were incubated with RagD for 20 min at 37° C. The error bars represent mean S.D. (n=3).
# GTPase assays were conducted in assay buffer (20 mM piperazine-N,N9-bis(2-ethanesulfonic acid), 20 mM HEPES, 5 mM MgCl2, 125 mM NaCl, 5 mM KCl at pH 7.0, 0.5 mM GTP) containing 0.1% bovine serum albumin in a final volume of […] using GTPase assay kit (Innova Biosciences) according to manufacturer's instructions.
# T1 sequence (Q9NQL2 whole entry, the tested form may be a part): as above
binding between RagD and LRS-(1-1176) [1],binding between RagD and LRS-(1-1176) ([1]; listed as LRS-(759-1176)),GTP hydrolysis by RagD GTPase (GAP activity) [2],Molecule
–,–,lost their GAP activity,"H844A: LRS (759-1176 a.a) fragment with alanine mutation H844A in the putative GAP motif (protein, UniProt Q9P2J5 759-1176, looked up, variant H844A) MADAGILRLYTWVEWVKEMVANWDSLRSGPASTFNDRVFASELNAGIIKTDQNYEKMMFKEALKTGFFEFQAAKDKYRELAVEGMARELVFRFIEVQTLLLAPFCPHLCEHIWTLLGKPDSIMNASWPVAGPVNEVLIHSSQYLMEVTHDLRLRLKNYMMPAKGKKTDKQPLQKPSHCTIYVAKNYPPWQHTTLSVLRKHFEANNGKLPDNKVIASELGSMPELKKYMKKVMPFVAMIKENLEKMGPRILDLQLEFDEKAVLMENIVYLTNSLELEHIEVKFASEAEDKIREDCCPGKPLNVFRIEPGVSVSLVNPQPSNGHFSTKIEIRQGDNCDSIIRRLMKMNRGIKDLSKVKLMRFDDPLLGPRRVPVLGKEYTEKTPISEHAVFNVDLMSKKIHLTENGIRVDIGDTIIYLVH"
–,–,lost their GAP activity,"R845A: LRS (759-1176 a.a) fragment with alanine mutation R845A in the putative GAP motif (protein, UniProt Q9P2J5 759-1176, looked up, variant R845A) MADAGILRLYTWVEWVKEMVANWDSLRSGPASTFNDRVFASELNAGIIKTDQNYEKMMFKEALKTGFFEFQAAKDKYRELAVEGMHAELVFRFIEVQTLLLAPFCPHLCEHIWTLLGKPDSIMNASWPVAGPVNEVLIHSSQYLMEVTHDLRLRLKNYMMPAKGKKTDKQPLQKPSHCTIYVAKNYPPWQHTTLSVLRKHFEANNGKLPDNKVIASELGSMPELKKYMKKVMPFVAMIKENLEKMGPRILDLQLEFDEKAVLMENIVYLTNSLELEHIEVKFASEAEDKIREDCCPGKPLNVFRIEPGVSVSLVNPQPSNGHFSTKIEIRQGDNCDSIIRRLMKMNRGIKDLSKVKLMRFDDPLLGPRRVPVLGKEYTEKTPISEHAVFNVDLMSKKIHLTENGIRVDIGDTIIYLVH"

Molecule,binding between RagD and LRS-(1-1176) [1],binding between RagD and LRS-(1-1176) ([1]; listed as LRS-(759-1176)),GTP hydrolysis by RagD GTPase (GAP activity) [2]
"His-LRS-(759-1176): His-tagged fragment of leucyl tRNA synthetase, residues 759-1176 (protein, left off: small tags and cut ends) MADAGILRLYTWVEWVKEMVANWDSLRSGPASTFNDRVFASELNAGIIKTDQNYEKMMFKEALKTGFFEFQAAKDKYRELAVEGMHRELVFRFIEVQTLLLAPFCPHLCEHIWTLLGKPDSIMNASWPVAGPVNEVLIHSSQYLMEVTHDLRLRLKNYMMPAKGKKTDKQPLQKPSHCTIYVAKNYPPWQHTTLSVLRKHFEANNGKLPDNKVIASELGSMPELKKYMKKVMPFVAMIKENLEKMGPRILDLQLEFDEKAVLMENIVYLTNSLELEHIEVKFASEAEDKIREDCCPGKPLNVFRIEPGVSVSLVNPQPSNGHFSTKIEIRQGDNCDSIIRRLMKMNRGIKDLSKVKLMRFDDPLLGPRRVPVLGKEYTEKTPISEHAVFNVDLMSKKIHLTENGIRVDIGDTIIYLVH",inhibited,decreased the binding affinity,enhanced GTP hydrolysis by RagD GTPase in dose- and time-dependent manner
